Experimental data from PMC1343528 (The Journal of Cell Biology, 2005).

Biological target: calmodulin, purified (UniProt P0DP23 1-149)
Experiment: pull-down

binding result: binds
B1: GST fusion of α1C aa 1581–1690 with EEDAAA in place of TVGKFY (Mut6) (domain or fragment)
chain: not shown
